{
  "source": "the DeepSol protein solubility set",
  "data": [
    {"test": "soluble on expression in E. coli; label from the status in PepcDB or PDB records", "values": [
      {"sequence": "MSLQLLAEIVTVHTKHPFIIARGGQSEYQVVWVRLIDADGAEGWGEASPSKYYGETADTVMVALQRFAPVLAGADAWSIEAIERELEKAMRWNAAARCAVSAALHDLAARRLGVPLWKMWGLDRQATPISSFTIGIAPDAATLRARVREAAHYPLLKIKLGSSWDREVLRIVREEAPKAQLRVDANAAWTAKQALGMLDVLNEVGVDMLEQPLPPQELAGLRFVRERSNIPVVADESCLVASDIPKLEGIVDGVNIKLAKCGSLREALRMIAVARAHGMRVMCGCMIETTLGIAAAAHFSPLLDDADLDGAALLSDDPFDGPGIPDGRVVLGDAPGLGVTRRAGNEGHHHHHH", "soluble on expression in E. coli": "soluble"},
      {"sequence": "MNTANFSAQQLQAERLLLLPSYILLKEGLVQDQAILVENGIFQDIGTHVELTKKYPDIVPVKLQDQLIMPGMIDGHHHLTQSFAKSLAYGEPSEIFKRIWVPLESNLNEQFVYLCTKLAALESLRGGFTTVCDAGTRSEIGMQLMVRALEETGLRCVLSLICNDGRAHSTLELRQNILENAQIFIKSYKQHKNVHPSLAISIPEVASDDMLYEVSKLCANSNIIFQVHVNEHLASVERSIIQQGMRPLEHLAKVGALGPQTLIAHATMLTPSELLLLQRTDTAVSYNPVASQWKGNAVASAHLMHELNIRFALGTDATRADGFRLLDAAEATQKLIFGIPTGDCSTGGGWMWLDHATTAGAEAVGLSQLTGSISIGKQADFLIIDLDTPEFCTSQDITWDMVRLCQRDQIQAVFVGGRICLWQGWPLDWDAKELMCRMKVLTKKAIEASPIQKLHPTAEQHRQLHGQTSQQQSVHI", "soluble on expression in E. coli": "not soluble"},
      {"sequence": "TGAITVGNKNNDKLTLWTTPAPSPNCRLNAEKDAKLTLVLTKCGSQILATVSVLAVKGSLAPISGTVQSAHLIIRFDENGVLLNNSFLDPEYWNFRNGDLTEGTAYTNAVGFMPNLSAYPKSHGKTAKSNIVSQVYLNGDKTKPVTLTITLNGTQETGDTTPSAYSMSFSWDWSGHNYINEIFATSSYTFSYIAQE", "soluble on expression in E. coli": "soluble"},
      {"sequence": "GSHMATEPKAGRPSDYMPEVADDICSLLSSGESLLKVCKRPGMPDKSTVFRWLAKHEDFRDKYAKATEARADSIFEEIFEIADNAIPDAAEVAKARLRVDTRKWALARMNPRKYGDKVTNELVGKDGGAIQIETSPMSTLFGK", "soluble on expression in E. coli": "soluble"},
      {"sequence": "MLPFLFFSTLFSSIFTEAQKQYWVCNSSDASISYTYCDKMQYPISINVNPCIELKGSKGLLHIFYIPRRDLKQLYFNLYITVNTMNLPKRKEVICRGSDDDYSFCRALKGETVNTTISFSFKGIKFSKGKYKCVVEAISGSPEEMLFCLEFVILHQPNSNLEHHHHHH", "soluble on expression in E. coli": "not soluble"},
      {"sequence": "SNAMSEFIMNNLEQTARRWLEERGVTVEKIAELVYYLQSKYHPDLTMEECIENVNRVISKREVQNAILTGIQLDKLAEDGRLDEPLQSIIRRDEGLYGVDEILALSIVNVYGSIGFTNYGYIDKQKPGILQYLNDKSTGKCNTFLDDIVGAIAAAASSRLAHRAANAE", "soluble on expression in E. coli": "soluble"},
      {"sequence": "PGSMTVTQSQLELLIRNAFPEAEITVTSLVGDNNHYSIKVISSQFQGKSKLEQHRMIYKVLDGLNIHAIQIQTGCK", "soluble on expression in E. coli": "soluble"},
      {"sequence": "MGSDKIHHHHHHMNDLNVLVLEDEPFQRLVAVTALKKVVPGSILEAADGKEAVAILESCGHVDIAICDLQMSGMDGLAFLRHASLSGKVHSVILSSEVDPILRQATISMIECLGLNFLGDLGKPFSLERITALLTRYNARRQDLPRQIEVAELPSVADVVRGLDNGEFEAYYQPKVALDGGGLIGAEVLARWNHPHLGVLPPSHFLYVMETYNLVDKLFWQLFSQGLATRRKLAQLGQPINLAFNVHPSQLGSRALAENISALLTEFHLPPSSVMFEITETGLISAPASSLENLVRLRIMGCGLAMDDFGAGYSSLDRLCEFPFSQIKLDRTFVQKMKTQPRSCAVISSVVALAQALGISLVVEGVESDEQRVRLIELGCSIAQGYLFARPMPEQHFLDYCSGS", "soluble on expression in E. coli": "not soluble"},
      {"sequence": "MGSDKIHHHHHHMESLIESNINFSIFFYNPNIHPVKEYLIRKEENIRFAEKHNIPFIDADYDTDNWFARAKGMENEPERGIRCTMCFDMRFERTALYAYENGFSLISSSLGISRWKNMAQINDCGIRAASHYPDIQYWDYNWRKNGGSSRMIEISKREEFYQQEYCGCVYSLRDTNRWRMSNGRDRIKIGVKFYSNAMEND", "soluble on expression in E. coli": "not soluble"},
      {"sequence": "GMNQRDVILDCEKKLLTAIQNNDVESLEVLLHDDLLFIIPSGETVTKETDIAAYSSGKIALRAVVPSDYIIRIIHDTVVVSVNIEIKGEYMEHTLDNTFRYLRVWKLFDGNWKVIAGSCTAIG", "soluble on expression in E. coli": "soluble"},
      {"sequence": "MQAAVTVTPARLPELLLGLATVRPVFLWGAPGIGKSSLVRNFADSLGLECVSLLGTQLAPEDLIGVPQIRDGRSVFCPPESIARDEPYCLFLDELNAATPDVQKAFYSLILDRRIGNYELPKGSLVIGAGNRATDNALARPIASALVNRLTHVHLDASAKDWLVWAGENGIHPWITDHLTDRPDHLWSKPPKTEEPFSTPRSWHMLSDALHSFGQDLDEETLKVLAHGTLTPAHATAFCGYVKIVRSRFGIEAILKGEARWPSRIEDRDLLYYLAESFRGRLVKELPASKEHMSANGRQTAYRAKSLLVQLAEISVEVAQSVIASDADGNPLLPAWFLVEAARDMPRLVEARRLEHHHHHH", "soluble on expression in E. coli": "not soluble"},
      {"sequence": "MGSDKIHHHHHHMAYSDTPEQSAVINWKGRHLVVNAFAGTGKTTTLVRYAQANPDRRMLYLAYNRAVRDDAERKFPFNVECKTSHQLAWMKFGKHLKPRLTPNLRITDVARKLNTRHWPLVRMALAALNHFLCSASPALSYEHLPDENNREGLDAGNILGAAQFLWNEMSRIDSTFPVTHDTYLKLFQLSVPDLSKRWDTILFDEAQDANPVISSLVLTQNCNVVLVGDRHQQIYRFRGADNALNAPVLEGADRLWLTQSFRFGSAVAEMANVLLARQEETHPVIGNGGDDDVIDRLPADVSRYTILSRTVAGVIGAALYESMKEKIVYWVGGIEGYKTEELEDLYWFSVDMPERMRTPRLSREYRDFEEYKSMTKATGDVEMNQAIGLLDKYFPLPQKLQVLRSQATTNEKDADVVVSTAHRSKGLEWDTVMLNDDFSDITDPLLSEAARTDETNLLYVATTRARKLLVRNELLKLLCEQEESDDIAEDQFTDSNLI", "soluble on expression in E. coli": "not soluble"},
      {"sequence": "MAHHHHHHMSSRIGHAGTGMPTRGIASFPNSPPAVRNSCSTADTEGFGVSMESTIFTGTFSTAACAHAPTRRTVEAREQTSTVLDHLVTHIVDVPFFLARNAEERAHGCSLSLATAACPGTKLVMRNPRRRLISHSSQTHGAPASSHWPKVLFVPDSSSQRLAAPP", "soluble on expression in E. coli": "not soluble"},
      {"sequence": "HGNQLTAYTLRLGDNCLVLSQRLGEWCGHAPELEIDLALANIGLDLLGQARNFLSYAAELAGEGDEDTLAFTRDERQFSNLLLVEQPNGNFADTIARQYFIDAWHVALFTRLMESRDPQLAAISAKAIKEARYHLRFSRGWLERLGNGTDVSGQKMQQAINKLWRFTAELFDADEIDIALSEEGIAVDPRTLRAAWEAEVFAGINEATLNVPQEQAYRTGGKKGLHTEHLGPMLAEMQYLQRVLPGQQW", "soluble on expression in E. coli": "soluble"},
      {"sequence": "MGSDKIHHHHHHMADFPTRPDEVDAVWLEARLADAGVLDGARIVKVEWQSIGTGQVGDTARFSLTYDRPAPLAPASVAAKFPSSDPTSRQTAASFSLYKREVNFYRDVAGLIDMRVPRAYAALLDDNGCDFVLLFEDLGPCEAGNQLSGCGIDQARDALRQAAALHAATLDHPVLDSEWLQTDPQASAMLRALYPQAQAIFRERYADALDPALMAICDELDECADLWFDRKPARRSFLHGDFRLDNMLFGIRDGQEPIALVDWQTAAVGCGLTDIGYFMGCGIGSGLRRPHEAALLDLYCAEMTRRGVAMTRDEIMDDYRIGALHGVSTAVFSSAFVVRTERGDANFLSMARGACELALEHNSLGALKRRMENA", "soluble on expression in E. coli": "not soluble"},
      {"sequence": "MLTVTFTVSNTGDRAGAAVPQVYPGFPNTTIDRCVRELKAFRRVELEPGQRQTVTVALTRRDLSYWDILPHPLRSYAVGSILEHHHHHH", "soluble on expression in E. coli": "not soluble"},
      {"sequence": "MASYKKERLENDIIRLINRTVIHEIYNETVKTGHVTHVKLSDDLLHVTVYLDCYNREQIDRVVGAFNQAKGVFSRVLAHNLYLAKAVQIHFVKDKAIDNAMRIESIINSLKKSKPN", "soluble on expression in E. coli": "soluble"},
      {"sequence": "MDKKVTDSTQRGYYIVYLFSEDMCRLYLTLTQRVTETPRDEMERVKQDIRQQIPVGGRVQTDNAIRLSASKRAKEYERSVAVYIAYSFDNLPSDEQLVSDLKTMIGYYRQYVERTEKMTPFKQSLSDRSVVEHIHFYITAKGFYYTQEEVMNLFLSLKTKPFVILSGISGTGKTKIAQWLAESVGATEDNGQFILIPVCPDWNDGSDLLGYVDIKGDFKPGPLTNVITEAENHPDKPYFVVLDEMNLARVEHYFSDVLSVMGSRRWENGRITLSRLLPKETAGRDLFLPPNVYIIGTVNMDETTHPFSKKVLDRANTIEFNRIRLDHLDFLRDLPTVAPLSGGQEWFAARLEHHHHHH", "soluble on expression in E. coli": "not soluble"},
      {"sequence": "SESDSEMVPFPQLPMPIENNYRACTIPYRFPSDDPKKATPNEISWINVFANSIPSFKKRAESDITVPDAPARAEKFAERYAGILEDLKKDPESHGGPPDGILLCRLREQVLRELGFRDIFKKVKDEENAKAISLFPQVVSLSDAIEDDGKRLENLVRGIFAGNIFDLGSAQLAEVFSRDGMSFLASCQNLVPRPWVIDDLENFQAKWINKSWKKAVIFVDNSGADIILGILPFARELLRRGAQVVLAANELPSINDITCTELTEILSQLKDENGQLLGVDTSKLLIANSGNDLPVIDLSRVSQELAYLSSDADLVIVEGMGRGIETNLYAQFKCDSLKIGMVKHLEVAEFLGGRLYDCVFKFNEVQS", "soluble on expression in E. coli": "soluble"},
      {"sequence": "MEIIIVGGFLGSGKTTTLNHLITDALDHNLKTALIINEFGKMSVDSQLIHPTIPISEIVEGCICCAMKSNVSQQLHEIYLEHQPDLVFIECSGIAEPLAVVDACLTPVLAPITTIRSMLGIIDAKLYEKIETYPRDIQALFYEQLSYCSTLFVNKIDIADFNQVARLLRHLEVINRDANIQVGQWGELALNTLLNVKHLDAKQRGTLHHAINHQLIDTPRSQTKADFIERLTQLPQQVYRVKGFVRFTDSKLIHLVQYAEGEIELTPIQFKSDVPLYLVVIGKHLDAIELDLLEHHHHHH", "soluble on expression in E. coli": "not soluble"},
      {"sequence": "MTRPDNEPARLRSVAENLAAEAAAFVRGRRAEVFGISRAGDGDGAVRAKSSPTDPVTVVDTDTERLLRDRLAQLRPGDPILGEEGGGPADVTATPSDRVTWVLDPIDGTVNFVYGIPAYAVSIGAQVGGITVAGAVADVAARTVYSAATGLGAHLTDERGRHVLRCTGVDELSMALLGTGFGYSVRCREKQAELLAHVVPLVRDVRRIGSAALDLCMVAAGRLDAYYEHGVQVWDCAAGALIAAEAGARVLLSTPRAGGAGLVVVAAAPGIADELLAALQRFNGLEPIPDALEHHHHHH", "soluble on expression in E. coli": "soluble"},
      {"sequence": "MPNYKLLYFDARALAEPIRIMFAMLNVPYEDYRVSVEEWSKLKPTTPFGQLPILQVDGEQFGQSMSITRYLARKFGLAGKTAEEEAYADSIVDQYRDFIFFFRQFTSSVFYGSDADHINKVRFEVVEPARDDFLAIINKFLAKSKSGFLVGDSLTWADIVIADNLTSLLKNGFLDFNKEKKLEEFYNKIHSIPEIKNYVATRKDSIV", "soluble on expression in E. coli": "not soluble"},
      {"sequence": "MATNRSRRLRKKLCVDEFQELGFELNLDFKQELDDKAIDAFLDAFLKEAMEANGLGYVGGDDFGLVCLSKRGSVSEEQRAAVEAWLKGRSELTEVTVSPLIDVWY", "soluble on expression in E. coli": "not soluble"},
      {"sequence": "SAQEKMELDLELPPGTGGSPAEGGGSGGGGGLRRSNSAPLIHGLSDTSPVFQAEAPSARRNSTTFPSRHGLLLPASPVRMHSSRLHQIKQEEGMDLINRETVHEREVQTAMQISHSWEESFSLSDNDVEKSASPKRIDFIPVSPAPSPTRGIGKQCFSPSLQSFVSSNGLPPSPIPSPTTRFTTRRSQSPINCIRPSVLGPLKRKCEMETEYQPKRFFQGITNMLSSDVAQLSDPGVCVSSDTLDGNSSSAGSSCNSPAKVSTTTDSPVSPAQAASPFIPLDELSSK", "soluble on expression in E. coli": "soluble"}
    ]}
  ]
}
